Data reported in PMC12316734, “Lipase Activation by Poly(Methyl Methacrylate) in Dispersed Solution: Mechanistic Insights by Fluorescence Spectroscopy” (Applied Biochemistry and Biotechnology, 2025).

Legend:
Assay in all cases: fluorogenic hydrolysis assay, Michaelis-Menten fit
Settings in all cases: pH 7, 20 °C, no PMMA, 2% DMSO, 500 nM enzyme
[1] = substrate: CCCC(=O)Oc1ccc2c(C)cc(=O)oc2c1; assay type: biochemical, Thermomyces lanuginosus
Source text: fluorogenic hydrolysis assay, Michaelis-Menten fit on Thermomyces lanuginosus lipase (TLL)

[2] = substrate: CCCC(=O)Oc1ccc2c(C)cc(=O)oc2c1; assay type: biochemical, Moesziomyces antarcticus
Source text: fluorogenic hydrolysis assay, Michaelis-Menten fit on Candida antarctica lipase B (CalB)

[3] = substrate: CCCC(=O)Oc1ccc2c(C)cc(=O)oc2c1; assay type: biochemical, Bacillus subtilis
Source text: fluorogenic hydrolysis assay, Michaelis-Menten fit on Bacillus subtilis lipase A (BSLA WT)

B1: Thermomyces lanuginosus lipase (TLL) (Thermomyces lanuginosus) (protein)
chain: EVSQDLFNQFNLFAQYSAAAYCGKNNDAPAGTNITCTGNACPEVEKADATFLYSFEDSGVGDVTGFLALDNTNKLIVLSFRGSRSIENWIGNLNFDLKEINDICSGCRGHDGFTSSWRSVADTLRQKVEDAVREHPDYRVVFTGHSLGGALATVAGADLRGNGYDIDVFSYGAPRVGNRAFAEFLTVQTGGTLYRITHTNDIVPRLPPREFGYSHSSPEYWIKSGTLVPVTRNDIVKIEGIDATGGNNQPNIPDIPAHLWYFGLIGTCL
notes: commercial lipase (gift of ASA Spezialenzyme), desalted; predominantly dimer in FCS
Km [1]: 20.8 ± 1.67 µM | Vmax [1]: 4.16 µM/min | Vmax/Km [1]: 0.2 min⁻¹

B2: Candida antarctica lipase B (CalB) (Moesziomyces antarcticus) (protein)
chain: LPSGSDPAFSQPKSVLDAGLTCQGASPSSVSKPILLVPGTGTTGPQSFDSNWIPLSTQLGYTPCWISPPPFMLNDTQVNTEYMVNAITALYAGSGNNKLPVLTWSQGGLVAQWGLTFFPSIRSKVDRLMAFAPDYKGTVLAGPLDALAVSAPSVWQQTTGSALTTALRNAGGLTQIVPTTNLYSATDEIVQPQVSNSPLDSSYLFNGKNVQAQAVCGPLFVIDHAGSLTSQFSYVVGRSALRSTTGQARSADYGITDCNPLPANDLTPEQKVAAAALLAPAAAAIVAGPKQNCEPDLMPYARPFAVGKRTCSGIVTP
notes: commercial lipase B (Strem Chemicals), free enzyme in solution
Km [2]: 26.6 ± 1.77 µM | Vmax [2]: 5.43 µM/min | Vmax/Km [2]: 0.2 min⁻¹

B3: Bacillus subtilis lipase A (BSLA WT) (Bacillus subtilis subsp. subtilis str. 168) (protein)
chain: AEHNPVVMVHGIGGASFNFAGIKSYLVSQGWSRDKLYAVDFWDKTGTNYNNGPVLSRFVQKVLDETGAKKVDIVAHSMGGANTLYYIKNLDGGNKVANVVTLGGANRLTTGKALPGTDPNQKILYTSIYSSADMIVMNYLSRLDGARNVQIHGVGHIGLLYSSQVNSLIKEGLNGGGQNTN
Km [3]: 39.2 ± 3.61 µM | Vmax [3]: 97.7 µM/min | Vmax/Km [3]: 2.49 min⁻¹
